Measurements reported in PMC4455283, “Crystal structure of TRIM20 C-terminal coiled-coil/B30.2 fragment: implications for the recognition of higher order oligomers” (Scientific Reports, 2015).

Columns and labels:
[1] = biological target: the molecule itself; assay: AUC; sedimentation velocity analytical ultracentrifugation at 4 °C
pro-interleukin-1β = biological target: T1, pro-interleukin-1β (UniProt P01584 1-269); assay: SPR; TRIM20Δ413 and pro-IL-1β; heterogeneous ligand model; apparent dissociation constants; immobilised partner not told in the text shown; settings: both partners purified
T1 construct: pro-interleukin-1β (uncleaved precursor of IL-1β); Printed mass 31.9 kDa; The FLAG tag is named for the co-immunoprecipitation; also called pro-IL-1β; FLAG-tagged pro-IL-1β; source: purified

apparent KD, heterogeneous ligand model, first constant (pro-interleukin-1β): 0.7 µM | apparent KD, heterogeneous ligand model, second constant (pro-interleukin-1β): 13.7 µM
B1: TRIM20Δ413 (TRIM20 coiled-coil/B30.2 fragment) (domain or fragment, human, UniProt O15553 414-781, looked up)
chain: EVALEHKKKIQKQLEHLKKLRKSGEEQRSYGEEKAVSFLKQTEALKQRVQRKLEQVYYFLEQQEHFFVASLEDVGQMVGQIRKAYDTRVSQDIALLDALIGELEAKECQSEWELLQDIGDILHRAKTVPVPEKWTTPQEIKQKIQLLHQKSEFVEKSTKYFSETLRSEMEMFNVPELIGAQAHAVNVILDAETAYPNLIFSDDLKSVRLGNKWERLPDGPQRFDSCIIVLGSPSFLSGRRYWEVEVGDKTAWILGACKTSISRKGNMTLSPENGYWVVIMMKENEYQASSVPPTRLLIKEPPKRVGIFVDYRVGSISFYNVTARSHIYTFASCSFSGPLQPIFSPGTRDGGKNTAPLTICPVGGQGPD
notes: TRIM20 (pyrin, marenostrin), human, UniProt O15553; construct starting with E414, comprising the CHS (coiled-coil, E414-N586) and B30.2 (E589-G776) domains; Calculated monomer mass printed as 42 737 Da (85.7 kDa dimer); also called CHS-B30.2; TRIM20 C-terminal coiled-coil/B30.2 fragment; source: purified
stoichiometry N [1]: 2
